The text below walks through data of PMC4874933.

No end group written: not given here.

The target in the assay is fibrils composed of synthetic human λ6 variable domain (rVλ6Wil) (human). As to the kind of experiment: co-sedimentation.

In turn, GGGYSKAQKAQAKQAKQAQKAQKAQAKQAKQAQKAQKAQAKQAKQA (also: Tc-99m label coupled directly, site not characterised) [Tc-99m labeled GGGY-p5+14 peptide] came in with a % bound of 58%.
